assay: soluble on expression in E. coli; label from the status in PepcDB or PDB records

Sequence	soluble on expression in E. coli
MMDEKLNFSYLFGSNAPYIEELYEAFLENPDAVDEKWKQYFTDLSKQPGTVAVDVAHTPIRESFVTLAKKKIASAVAGGADEAMLKKQVSVLRLISAYRIQGVGAAQLDPLKRIPPRDIEALDPKFHGLSDADMALQFNMGEGDFANRGKLPLSQIISNLKQTYCGHIALEYIYIPNTEERRWVRNYFESVLSTPHYNADQKRRILKEMTAAETLERYLHTKYVGQKRFGVEGGESAIAGLNYLIQNAGKDGVEEVIIGMAHRGRLNVLVNILGKKPGDLFAEFEGRAEIKLPSGDVKYHMGFSSDIATPHGPMHVSLAFNPSHLEIVNPVVEGSARAKQKRLGENGRDKVLPVLIHGDSAFIGLGVNQATFNLSKTRGYTTGGTVHIVINNQIGFTTSDIRDTRSTVHCTDIAKMVSAPVIHVNGDDPERVCFAIQAALDYRKKFHKDIVIDVVCYRKWGHNEGDDPTLTQPMMYKKVSQHPGARALYTEQLIAEGVVTQAEADGYIQAYRDALDKGEHVEQTTLSNFQRTQIDWSKYQGKDWREHIETGLPAADIERLTEKFTAVPEGFALHPTAKRVIEARKAMASGKQAIDWGMAETLAYASLVTKGHGVRISGEDSGRGTFSHRHAVLHDQKREKWDDGTYVPLRHMGEGMGEFLVIDSILNEEAVMAFEYGFACSAPDKLTIWEAQFGDFANGAQVTIDQFLSSGETKWGRLCGLTTILPHGYDGQGPEHSSARVERWLQLCSENNMQVIMPSEASQMFHLLQRQVLGSYRKPLVIFMSKRLLRFKGAMSPLENFTEGSTFRPVIGDTAERASNDSVKRVVLCAGQVYYDLEAGRAERKLEDDVAIVRVEQLYPFPYDEVKAELAKYPNAKSVVWAQEEPKNQGAFYQIRHRIEDVISEEQKLSYAGRPSSASPAVGYSSKHIAQLKQLVEDALAL	not soluble
MMKMIIAIVQDQDSQELADQLVKNNFRATKLATTGGFLRAGNTTFLCGVNDDRVDEILSVINQTCGNREQLVSPITPMGGSADSYIPYPVEVEVGGATVFVMPVDAFHQFLEHHHHHH	soluble
AKFREIANIALGKGAAIMADHLHEFIQLPVPHVGPLSYGELHMTLVDVIGRDSSVAVSQRFVGGGIHGEALVCLRGKDINQIGERLGYLLEFTPHNEIILNVSNLLVSSFLTSLGNQLDKQFSLRQPGIVDTITPYNEEQGESGELFTIEYTYMAEALDFECEVLFLIDKPSVEIIYEIMELI	not soluble
LHLELEEKLAGIAAWEPTAPRLLNPGVSSGKALVASGVAAAHAREVLEDLGLRDVIPLWQVVQPYPLHTAFVERLLADYDEILVLEETTGVMELQLADRHRVKGKRSGFVPEVGELSPELVERLVAAFAGIPAAPSVAPPTGGGRRPTLCPGCPHRASFHAIKRAAPKGIYPSDIGCYTLGLNLGGVDTVLCMGAAVSQAAGFYHAYKLSGQVPDIVATIGDSTFFHAGIPPLIDAVVQDARFVLVILDNATTAMTGNQPTPALGWGAGGVPTATVDMEGLVKACGV	not soluble
MINHECINQPYGRILKFSRVQAKEMLTADELKENFAKNGQTLAQWARENGFKPRDVYLVIGGQRKGNYGKGHEIAKKLGLK	not soluble
MTYTSLKSPENQDYIYDLTIAHLYGNLMNTYGDNGNILMLKYVAEKLGARVTVDIVSINDTFEQDDYDIVFFGGGQDYEQSIVAKDLPSKKAALADYIANNKVVLAICGGFQLLGQYYVQANGVKIDGLGIMGHYTLNQHQNRFIGDIKIHNDEFNETYYGFENHQGRTFLSGDEKPLGRVVYGNGNNKEDQTEGVHYKNVYGSYFHGPILSRNVNLAYRLVTTALKKKYGSAISLPSYDDILKQEITEEYADLKSKASFNKV	not soluble
MMLSLNNLQNIIYNPVIPYVGTIPDQLDPGTLIVICGHVPSDADRFQVDLQNGSSVKPRADVAFHFNPRFKRAGCIVCNTLINEKWGREEITYDTPFKREKSFEIVIMVLKDKFQVAVNGKHTLLYGHRIGPEKIDTLGIYGKVNIHSIGFSFSSDLQSTQASSLELTEISRENVPKSGTPQLSLPFAARLNTPMGPGRTVVVKGEVNANAKSFNVDLLAGKSKDIALHLNPRLNIKAFVRNSFLQESWGEEERNITSFPFSPGMYFEMIIYCDVREFKVAVNGVHSLEYKHRFKELSSIDTLEINGDIHLLEVRSW	soluble
MGSDKIHHHHHHMNSFLDSVCALLEQGEDVVIVTIAMQSGSTPRESGAKMAVRRDGSILGTVGGGLMEAGCMELGREMLTGRFASSAAESGPELAVIRHFDLSNEEAAKAAMVCGGRLTVVAEHIQAGRRGAEVLCAARDSLLQGKACGLETTMERLEHTAAATREACFAVTGRKTPDCGHAAPAAASATLDCDGKTCRFTEWLQPSPRMIIFGAGHVALPTAAMASMTGFAVTVLDDREEFASPQRFPQARTVVLPDFGQAFAQLTITPQCYVVIMTRGHLHDKTVLEQALKTPACYVGMIGSRRKRDALYDQLRSEGVDESSIARCHCPIGLEIGARTPEEIAVSIMAEIIACRAAGNGDGAS	not soluble
MILIRLEPGMDLMEEMRAAFSEGVVVTGIGSLHRVRIRTADESELTVEGPLEILSLQGTISPDGVHIHIAVADSEGRVTGGHLRGDSPVRTTAEIAVIPYQGVLRRVMDRRTGYRELLVLE	not soluble
MCGITGWVDWKEDLSNQHVILKKMANRIQHRGPDAEGFWFSPRAAFAHRRLIVIDPEGGAQPKTFRAGDYTYALTYNGEIYNFRELREQLQKCGHTFETHSDTEVLLHAYLEWKEDCVQHLNGIFAFALWDDQKQRLFLARDHLGVKPLFYTERNDSIIFGSEIKALLAHPSVPAEIDADGINEIFGLGLFRTPGCGVFKHIEEVRAGHSITFTRDKKVVTKYWNLESKVHTDSIEDTSSHILSILQDTVKRQLIADVPLVCMLSGGLDSSGITALAGKEFAAENKTLHTYSVDFVNSAKDFELTFARTGLDAPWVKRVSEHVGTSHHDIIVNAEELANHLFVPLRAKDLPSAGEMETSLYLLFCEMKKDATVALSGESADEVFGGYPWFHQEELLYVDKFPWLTNWKNTSPLLLHEISNQCNLENYIDTRFQEAILEVPTLEGESKKSAKQRQMFYLFLTRFLPFLLDRKDRMSMAVGFEVRVPFCDYRLVEYLWNVPFNIKSIDNIEKGILRRALKPALPDDVRNRRKSAYPTSQDPQYLQTIRHLSLDMCSNKNNPIFSLINHSTLLAIADGSNKEINNFEARSAMEYMLQVNEWLKTYHIHIA	not soluble
MPEITESERAYHLRKMKTRMQRVDVTGDGFISREDYELIAVRIAKIAKLSAEKAEETRQEFLRVADQLGLAPGVRISVEEAAVNATDSLLKMKGEEKAMAVIQSLIMYDCIDTDKDGYVSLPEFKAFLQAVGPDLTDDKAITCFNTLDFNKNGQISRDEFLVTVNDFLFGLEETALANAFYGDLVD	soluble
MSLKQYKAYLIDLDGTMYMGTDEIDGAKQFIDYLNVKGIPHLYVTNNSTKTPEQVTEKLREMHIDAKPEEVVTSALATADYISEQSPGASVYMLGGSGLNTALTEAGLVIKNDEHVDYVVIGLDEQVTYEKLAIATLGVRNGATFISTNPDVSIPKERGLLPGNGAITSVVSVSTGVSPQFIGKPEPIIMVKALEILGLDKSEVAMVGDLYDTDIMSGINVGMDTIHVQTGVSTLEDVQNKNVPPTYSFKDLNEAIAELEKEGHHHHHH	soluble
MGSDKIHHHHHHMTPDSSPSSVDDPLFESGHRIFANKDLLKIGHVPEADRIVGRDEEISKLAKRLNGAVHGYSPENVMIYGKTGTGKSLVSKHVCQRAQNAAQDGVEIGTAYIDCAEDNTETQAISSLAAKLNDESSTGISVPHTGLSTSKYYKLLWKTLDAQFDSVIIILDEIDLMNDDSVLMKLSRAEEAGKIDCSVGVIAISNKIQYVDNVNERVKSSFQHKELFFKPYDANQLREIMFNREDAFQDGVLSEDVIPLSAAFAAQEHGDARKAIDILRHAGEVAYEAGAELVTEEHVRQAQQHAEKDRFRELVNGAPTQAKAALLALTELSVNSNDDAFLTSRVYDQYEHICNHLDMDILSVRRFRDILKEQAFLGVVEIEKINKGSAGGIHLQNRLIEDSQVVRETILEDSRMQDWTRE	not soluble
CDKSANPKQPTQGMSVVTSFYPMYAMTKEVSGDLNDVRMIQSGAGIHSFEPSVNDVAAIYDADLFVYHSHTLEAWARDLDPNLKKSKVNVFEASKPLTLDRVKGLEDMEVTQGIDPATLYDPHTWTDPVLAGEEAVNIAKELGHLDPKHKDSYTKKAKAFKKEAEQLTEEYTQKFKKVRSKTFVTQHTAFSYLAKRFGLKQLGISGISPEQEPSPRQLKEIQDFVKEYNVKTIFAEDNVNPKIAHAIAKSTGAKVKTLSPLEAAPSGNKTYLENLRANLEVLYQQLK	soluble
MAQMYFYYSAMNAGKSTTLLQSAFNYQERGMNPLIFTAAIDDRFGVGKVSSRIGLEAEAHLFHADTDLLHVIATLHEAEPRHCILMDECQFLSKEQVYQLTEVVDKLDIPVLCYGLRTDFLGELFEGSKYLLSWADKLIELKTICHCGRKANMVIRTDEHGNAISEGDQVAIGGNDKYVSVCRQHYKEALGR	not soluble
MGSDKIHHHHHHADDDKPIQVSQMPQKAQQFIKQHFAGSNIAMAKVESDFLQKSYDVIFTDGNKVEFDKKGNWTEVNCKFSVVPQGIIPSPIQKYTATNYPDAKVLKIERDKTDYEVKLSNGWELKFDSKFNLIDIDN	not soluble
MEINVQSDVGRKRNTNQDYANVFENQQHITFAVLADGMGGHQAGDVASQMAVNNLGESWSNASVDSAEKSAQWLIQAIQKENEKIYERGQSKPEYLGMGTTVVGAILLPDSFVLANVGDSRAYLVRDQHMLQLTEDHSLVNELVKSGEITREMAANHPRKNVLTRSLGMPGTVEVDVTNHEWLPNDYLLLCSDGLTNMVPETKILEILETSDPLESKLSQLVAQANEAGGLDNITVLVIHFDEQKEENQ	not soluble
SNAMLHIDDAMIEDAVTPQAAQEVLHAAFLDFGRGSAAMQRRVRTEAGGVKLSTLGAVIPGQGVAGAKVYTTIKGQFQFVILLFSAADGRPLATCDAGTLTRKRTAACTVLAAGALARPRSSVLGLFGAGTQGAEHAAQLSARFALEAILVHDPYASPEILERIGRRCGVPARMAAPADIAAQADIVVTATRSTTPLFAGQALRAGAFVGAIGSSLPHTRELDDEALRRARAVVVEWREQTLSEAGDLVLAAPDTGLDAKVVELADVLAGRAAARQADEDIVIYKSVGVGLEDVALAGYAYRRLAAQRGWPAP	soluble
MGSDKIHHHHHHENLYFQGMQLLKELCSIHAPSGNEEPLKDFILEYIRSNAGSWSYQPVIYADNDLQDCIVLVFGNPRTAVFAHMDSIGFTVSYNNHLHPIGSPSAKEGYRLVGKDSNGDIEGVLKIVDEEWMLETDRLIDRGTEVTFKPDFREEGDFILTPYLDDRLGVWTALELAKTLEHGIIAFTCWEEHGGGSVAYLARWIYETFHVKQSLICDITWVTEGVEAGKGVAISMRDRMIPRKKYVNRIIELARQTDIPFQLEVEGAGASDGRELQLSPYPWDWCFIGAPEKDAHTPNECVHKKDIESMVGLYKYLMEKL	soluble

Reference: the DeepSol protein solubility set
